According to patent US20250090677A1 (MULTITUDE THERAPEUTICS, published 2025):
Each block holds one binder with its values, some of them ahead of it.

Columns and labels:
[1] = target: T1, CDH6 on the cell surface of OVCAR-3 cells (human ovarian cancer cells) (human, UniProt P55285 54-790); assay: flow cytometry (FACS) on OVCAR-3 cells, antibody titration, labelled secondary antibody, MFI
T1 construct: whole, on cells; also called CDH6-positive human ovarian cancer cell line OVCAR-3
T1 sequence (looked up): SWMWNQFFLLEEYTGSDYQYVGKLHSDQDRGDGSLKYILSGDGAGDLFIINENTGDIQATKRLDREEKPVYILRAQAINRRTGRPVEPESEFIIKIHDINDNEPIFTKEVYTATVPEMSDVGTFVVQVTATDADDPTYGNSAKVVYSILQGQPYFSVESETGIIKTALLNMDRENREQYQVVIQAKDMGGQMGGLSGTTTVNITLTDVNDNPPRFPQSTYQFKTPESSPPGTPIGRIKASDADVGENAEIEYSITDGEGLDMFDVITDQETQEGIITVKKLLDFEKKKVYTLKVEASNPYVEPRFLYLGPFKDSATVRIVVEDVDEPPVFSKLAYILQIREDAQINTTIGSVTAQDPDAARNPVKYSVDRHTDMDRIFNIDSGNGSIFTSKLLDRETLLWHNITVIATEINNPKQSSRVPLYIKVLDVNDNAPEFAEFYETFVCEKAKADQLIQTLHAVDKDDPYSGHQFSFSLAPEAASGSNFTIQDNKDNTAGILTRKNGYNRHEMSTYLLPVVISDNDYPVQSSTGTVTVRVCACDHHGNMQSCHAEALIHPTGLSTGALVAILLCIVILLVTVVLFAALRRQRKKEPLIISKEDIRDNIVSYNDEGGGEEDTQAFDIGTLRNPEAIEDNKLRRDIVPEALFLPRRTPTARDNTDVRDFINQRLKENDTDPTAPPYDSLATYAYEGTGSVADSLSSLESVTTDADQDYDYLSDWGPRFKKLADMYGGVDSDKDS
Experimental: The binding EC50 of the humanized antibodies on tumor cell were tested as follow. Human ovarian cancer cell line OVCAR-3(purchased from National Collection of Authenticated Cell Cultures) cell culture was maintained in vitro as independent monolayer cultures at 37° C. in an atmosphere of 5% CO₂. The cells were harvested using trypsin-EDTA partial digestion followed by centrifugation at 1000 rpm for 5 minutes. The cell was resuspended in cold PBS and serial dilution of Ch069707 and CL069707-H1L1, CL069707-H1L2, CL069707-H2L1 and CL069707-H2L2 antibodies were added. Ch069707 antibody was a chimeric antibody. The variable regions were the same as those of CL069707, and the constant region was the same as human IgG1 constant regions (SEQ ID NO: 70 and SEQ ID NO: 71). The cell solutions were mixed, incubated at 4° C. and washed with cold PBS prior to addition of secondary antibody conjugates (for detection purposes). After incubation at 4° C., the cells were washed with PBS, and then subjected to flow cytometry (FACS) analysis.

recombinant protein CDH6 [2] = target: T2, recombinant protein CDH6 (UniProt P55285 54-615); assay: ELISA, CDH6 coated; antibody 50 ng/mL
T2 construct: also called CDH6 recombinant protein; CDH6 antigen
T2 sequence (looked up): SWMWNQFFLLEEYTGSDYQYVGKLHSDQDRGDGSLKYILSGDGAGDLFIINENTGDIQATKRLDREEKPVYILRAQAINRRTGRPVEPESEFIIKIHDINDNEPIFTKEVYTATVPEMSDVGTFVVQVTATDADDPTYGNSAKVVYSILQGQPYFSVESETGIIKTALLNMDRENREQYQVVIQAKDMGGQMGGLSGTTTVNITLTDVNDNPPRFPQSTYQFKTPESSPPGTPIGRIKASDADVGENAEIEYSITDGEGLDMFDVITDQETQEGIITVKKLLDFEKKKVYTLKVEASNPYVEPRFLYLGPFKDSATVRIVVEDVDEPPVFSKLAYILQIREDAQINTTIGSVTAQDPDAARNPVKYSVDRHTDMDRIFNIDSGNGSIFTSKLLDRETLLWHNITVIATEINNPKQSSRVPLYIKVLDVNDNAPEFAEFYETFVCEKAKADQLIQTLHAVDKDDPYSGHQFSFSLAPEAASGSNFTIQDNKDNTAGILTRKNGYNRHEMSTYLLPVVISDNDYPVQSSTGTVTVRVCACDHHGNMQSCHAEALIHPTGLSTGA
Experimental: (§1) The recombinant protein CDH6 was coated on ELISA plates at 1 μg/mL overnight at 4° C.; after being washed with PBST, the plate was added with 10% fetal bovine serum, and the mixture was blocked at 37° C. for 1 h; the plate was added with 13 monoclonal antibodies of CDH6 with different dilutions (0.1 ng/mL to 100 ng/mL), and the mixture was reacted at 37° C. for 1 h; after being washed with PBST, the plate was added with horseradish peroxidase-labeled goat anti-human IgG secondary antibody (Goat anti Mouse (HRP), Thermo Fisher Scientific), and the mixture was reacted at 37° C. for 30 min; after the plate was repeatedly washed with PBST 5 times, the remaining droplets on the absorbent paper were patted as much as possible; each well of the plate was added with 100 μL of TMB (eBioscience) and placed in the dark at room temperature (20±5° C.) for 1.5 min; each well of the plate was added with 100 μL of 2 N H₂SO₄ stop buffer for stopping substrate reaction, OD values at 450 nm were read using a microplate reader, and the binding ability of the antibody to the target antigen CDH6 was analyzed.

recombinant protein CDH6 [3] = target: T2, recombinant protein CDH6; assay: ELISA, CDH6 coated; antibody 6.25 ng/mL
Experimental: as §1

recombinant protein CDH6 [4] = target: T2, recombinant protein CDH6; assay: ELISA, CDH6 coated; antibody 0.20 ng/mL
Experimental: as §1

recombinant protein CDH6 [5] = target: T2, recombinant protein CDH6; assay: ELISA, CDH6 coated; antibody 25 ng/mL
Experimental: as §1

recombinant protein CDH6 [6] = target: T2, recombinant protein CDH6; assay: ELISA, CDH6 coated; antibody 0.78 ng/mL
Experimental: as §1

recombinant protein CDH6 [7] = target: T2, recombinant protein CDH6; assay: ELISA, CDH6 coated; antibody 1.56 ng/mL
Experimental: as §1

recombinant protein CDH6 [8] = target: T2, recombinant protein CDH6; assay: ELISA, CDH6 coated at 1 ug/mL
Experimental: as §1

recombinant protein CDH6 [9] = target: T2, recombinant protein CDH6; assay: ELISA, CDH6 coated; antibody 100 ng/mL
Experimental: as §1

recombinant protein CDH6 [10] = target: T2, recombinant protein CDH6; assay: ELISA, CDH6 coated; antibody 12.5 ng/mL
Experimental: as §1

recombinant protein CDH6 [11] = target: T2, recombinant protein CDH6; assay: ELISA, CDH6 coated; antibody 0.39 ng/mL
Experimental: as §1

recombinant protein CDH6 [12] = target: T2, recombinant protein CDH6; assay: ELISA, CDH6 coated; antibody 0.10 ng/mL
Experimental: as §1

recombinant protein CDH6 [13] = target: T2, recombinant protein CDH6; assay: ELISA, CDH6 coated; antibody 3.13 ng/mL
Experimental: as §1

B1: CL069707-H1L2 (antibody, human IgG1, kappa, V domains shown)
VH: EVQLVESGGGLVQPGGSLRLSCAASGFTFTTYAMNWVRQAPGKGLEWVARIRIKNNNYATYYADSVTDRFTISRDDSKNSLYLQMNSLKTEDTAVYYCVRPDYGNYGLAYWGQGTLVTVSS
VL: DIQLTQSPSSLSASVGDRVTITCSASSSISSHYLHWYQQKPGKSPKLLIYRSFYLASGVPLRFSGSGSGTDFTLTISSLQPEDFATYYCQQDIVPLTFGQGTKLEIKR
notes: Humanized IgG1/kappa, produced in 293 cells
- EC50 (read off the curve) [1]: ~1 nM

B2: CL069707 antibody (antibody, V domains shown)
VH: EVHLVESGGGLVQPKGSLKLSCVASGFTFTTYAMNWVRQAPGKGLEWVARIRIKNNNYATYYADSVTDRFTISRDDSQSMLYLQMNNLKTEDTAMYYCVRPDYGNYGLAYWGQGTLVTVSA
VL: EIVLTQSPTTMAASPGEKITITCSASSSISSHYLHWYQQKPGFSPKLLIYRSFYLASGVPLRFTGSGSGTSYSLTIGTMEAEDVATYYCQQDIVPLTFGAGTKLELK
notes: Mouse monoclonal antibody from hybridoma, purified from ascites with Protein A/G; also called #23; No. 23
- OD450 (recombinant protein CDH6 [2]): 1.33 OD450
- OD450 (recombinant protein CDH6 [3]): 1.01 OD450
- OD450 (recombinant protein CDH6 [4]): 0.101 OD450
- OD450 (recombinant protein CDH6 [5]): 1.18 OD450
- OD450 (recombinant protein CDH6 [6]): 0.305 OD450
- OD450 (recombinant protein CDH6 [7]): 0.577 OD450
- sensitivity (recombinant protein CDH6 [8]): ≤ 1.56 ng/mL
- OD450 (recombinant protein CDH6 [9]): 1.41 OD450
- OD450 (recombinant protein CDH6 [10]): 1.27 OD450
- OD450 (recombinant protein CDH6 [11]): 0.165 OD450
- OD450 (recombinant protein CDH6 [12]): 0.069 OD450
- OD450 (recombinant protein CDH6 [13]): 0.831 OD450

Other lines, results leading:

- EC50 (read off the curve) [1]: ~1 nM
B3: CL069707-H2L2 (antibody, human IgG1, kappa, V domains shown)
VH: EVQLVESGGGLVQPGGSLRLSCAASGFTFTTYAMNWVRQAPGKGLEWVGRIRIKNNNYATYYADSVTDRFTISRDDSKNSLYLQMNSLKTEDTAVYYCVRPDYGNYGLAYWGQGTLVTVSS
VL: DIQLTQSPSSLSASVGDRVTITCSASSSISSHYLHWYQQKPGKSPKLLIYRSFYLASGVPLRFSGSGSGTDFTLTISSLQPEDFATYYCQQDIVPLTFGQGTKLEIKR
notes: as for B1

- EC50 (read off the curve) [1]: ~1 nM
B4: CL069707-H2L1 (antibody, human IgG1, kappa, V domains shown)
VH: EVQLVESGGGLVQPGGSLRLSCAASGFTFTTYAMNWVRQAPGKGLEWVGRIRIKNNNYATYYADSVTDRFTISRDDSKNSLYLQMNSLKTEDTAVYYCVRPDYGNYGLAYWGQGTLVTVSS
VL: DIQLTQSPSSLSASVGDRVTITCSASSSISSHYLHWYQQKPGKSPKLLIYRSFYLASGVPSRFSGSGSGTDFTLTISSLQPEDFATYYCQQDIVPLTFGQGTKLEIKR
notes: as for B1
